This passage reports buried solvent-accessible surface results from patent publication US20220348651A1 (Novartis, published 2022).

The experiment deals with T1, recombinant murine ENTPD2 (residues 29-462) used in crystallography studies (mouse, UniProt O55026 29-462, N-linked glycosylation observed at Asn129 and Asn378).
T1 construct: also called murine ENTPD2 ectodomain; mENTPD2
T1 sequence: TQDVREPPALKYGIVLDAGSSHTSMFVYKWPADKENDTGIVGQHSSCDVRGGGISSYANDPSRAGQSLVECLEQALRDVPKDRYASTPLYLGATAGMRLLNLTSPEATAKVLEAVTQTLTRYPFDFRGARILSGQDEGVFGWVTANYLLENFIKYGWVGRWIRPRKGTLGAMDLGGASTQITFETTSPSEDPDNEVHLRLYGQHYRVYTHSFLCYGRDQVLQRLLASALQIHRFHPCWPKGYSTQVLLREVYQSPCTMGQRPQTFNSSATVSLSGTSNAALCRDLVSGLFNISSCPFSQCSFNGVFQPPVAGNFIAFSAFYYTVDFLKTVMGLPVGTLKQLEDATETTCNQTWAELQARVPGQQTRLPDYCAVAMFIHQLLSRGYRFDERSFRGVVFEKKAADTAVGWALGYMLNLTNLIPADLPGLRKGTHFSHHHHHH
Description: X-ray crystal structure of the complex. The protocol: Structure determination by molecular replacement was performed using the previously determined human ENTPD2 coordinates and Fab coordinates from PDB code 3QRG.

B1: ANTI-mouse ENTPD2 FAB24 (Fab, V domains shown)
VH: QVQLVQSGAELKQPGQSVKISCKASGYTFTHYGMNWVKQAPGQGLKWMGWINTDTGNPTYADDFKGRFVFSLDTSVSTAYLQISNLKNEDTATYYCVRYGTLYSGYGFFFDSWGQGTLVTVSS
VL: DIMMTQSPSSLSVSAGEKATITCKSSQSLFNSNTNKNYLNWYLQKPGQSPKLLFYYASTRHTGVPDRFIGSGSGTDFTLTITSVQDEDLADYYCQQWYSYPWTFGPGTKLEIKR
modifications: N-terminal residue observed and modeled as pyroglutamate in the crystal structure
notes: Fab with the variable regions of mAb13; human CH1 and kappa constant regions; also called anti-murine ENTPD2 Fab MAB13
Consider B1, for which the buried solvent-accessible surface was about 16300 Å2.
